In article PMC7911445:
Read-outs that look alike come from different tables or passages of the source.

β-catenin: 1-mM LiCl (GSK3β inhibitor) added to TMA/BL-treated cultures
localisation_or_trafficking (phosphorylation at S33): increases | localisation_or_trafficking (phosphorylation at S37): increases
